We go through one molecule from paper doi:10.1101/647354 (bioRxiv, 2019).

This test concerns the target T1, complement C5 (human, UniProt P01031 19-673; P01031 678-1676).
T1 construct: also called human C5; source: endogenous, human serum
In words: cryo-EM structure. The conditions noted are these: both partners purified.

T1 sequence (P01031 19-673, chain 1 of 2): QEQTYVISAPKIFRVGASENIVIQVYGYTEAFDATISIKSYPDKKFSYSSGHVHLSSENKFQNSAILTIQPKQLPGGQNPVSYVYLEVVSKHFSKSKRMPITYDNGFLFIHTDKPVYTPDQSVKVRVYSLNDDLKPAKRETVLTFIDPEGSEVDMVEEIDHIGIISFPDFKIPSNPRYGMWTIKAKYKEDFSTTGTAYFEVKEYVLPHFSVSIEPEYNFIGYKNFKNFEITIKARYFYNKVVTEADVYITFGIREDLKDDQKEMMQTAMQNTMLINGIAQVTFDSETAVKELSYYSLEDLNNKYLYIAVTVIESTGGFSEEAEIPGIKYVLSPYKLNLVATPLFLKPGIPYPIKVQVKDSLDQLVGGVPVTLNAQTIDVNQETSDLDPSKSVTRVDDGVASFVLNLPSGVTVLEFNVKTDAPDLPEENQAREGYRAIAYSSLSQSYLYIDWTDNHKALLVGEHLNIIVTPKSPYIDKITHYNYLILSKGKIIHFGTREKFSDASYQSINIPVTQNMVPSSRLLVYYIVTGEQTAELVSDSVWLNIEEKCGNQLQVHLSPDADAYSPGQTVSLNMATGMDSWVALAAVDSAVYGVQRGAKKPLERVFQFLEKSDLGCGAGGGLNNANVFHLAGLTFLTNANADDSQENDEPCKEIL
T1 sequence (P01031 678-1676, chain 2 of 2): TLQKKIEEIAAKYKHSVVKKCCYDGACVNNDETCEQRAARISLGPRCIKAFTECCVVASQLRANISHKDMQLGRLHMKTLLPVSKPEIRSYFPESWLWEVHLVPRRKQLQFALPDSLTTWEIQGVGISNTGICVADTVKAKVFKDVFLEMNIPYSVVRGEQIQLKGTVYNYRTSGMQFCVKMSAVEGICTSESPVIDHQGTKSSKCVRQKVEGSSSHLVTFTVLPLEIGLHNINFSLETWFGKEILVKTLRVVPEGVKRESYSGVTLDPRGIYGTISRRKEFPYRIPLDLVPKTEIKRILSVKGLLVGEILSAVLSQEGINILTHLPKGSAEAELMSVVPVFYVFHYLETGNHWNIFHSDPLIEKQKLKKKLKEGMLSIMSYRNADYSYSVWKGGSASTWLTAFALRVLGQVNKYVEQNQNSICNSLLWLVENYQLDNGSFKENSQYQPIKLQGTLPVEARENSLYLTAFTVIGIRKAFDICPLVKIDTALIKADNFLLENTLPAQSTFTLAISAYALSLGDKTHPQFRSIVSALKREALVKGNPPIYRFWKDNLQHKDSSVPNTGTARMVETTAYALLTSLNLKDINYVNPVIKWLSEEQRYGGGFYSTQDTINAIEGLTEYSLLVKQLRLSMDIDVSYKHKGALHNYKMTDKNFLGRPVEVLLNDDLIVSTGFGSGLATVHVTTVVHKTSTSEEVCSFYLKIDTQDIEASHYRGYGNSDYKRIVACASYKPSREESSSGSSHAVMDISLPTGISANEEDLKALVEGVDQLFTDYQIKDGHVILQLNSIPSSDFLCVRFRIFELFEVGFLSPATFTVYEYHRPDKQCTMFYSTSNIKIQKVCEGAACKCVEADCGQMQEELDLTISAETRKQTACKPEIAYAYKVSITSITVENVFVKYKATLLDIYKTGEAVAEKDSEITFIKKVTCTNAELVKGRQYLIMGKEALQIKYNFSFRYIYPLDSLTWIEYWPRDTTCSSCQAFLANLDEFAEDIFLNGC

B1: OmCI (natural protein)
chain: DSESDCTGSEPVDAFQAFSEGKEAYVLVRSTDPKARDCLKGEPAGEKQDNTLPVMMTFKNGTDWASTDWTFTLDGAKVTATLGNLTQNREVVYDSQSHHCHVDKVEKEVPDYEMWMLDAGGLEVEVECCRQKLEELASGRNQMYPHLKDC
notes: also called Coversin; His-tagged OmCI
B1: the binding result is “binds”.
